Data from US20020155542A1, “Inhibitors for suppressing the activity of proteins displaying CIITA activity, methods for their identification and pharmaceutical compositions” (priority 1994, published 2002).

Key:
[1] = system: human T cell clones T-50 and T-87; test: Peptide-specific T cell activation with melanoma cells as antigen-presenting cells, H3-thymidine incorporation; format: cell-based; details: melanoma cells as APC, tetanus toxoid peptide p4; CIITA transfected vs 48 hours interferon gamma
Procedure: FIG. 9. Activation of human T cell clones with transfectants and interferon-stimulated cells used as APC's. Three types of cells were tested as APC'S: Untransfected melanoma cell line, MHC class II negative (o); The same cell line following 48 hours of exposure to […] of interferon gamma, MHC class II positive (black square ); The same cell line previously transfected with CIITA cDNA, MHC class it positive (black triangle). These cells were treated with various concentrations of p4, a tetanus toxoid peptide, at the concentrations indicated, fixed by UV light and incubated with two different human T cell clones specific for that peptide, T-50 and T-87. The extent of T cell activation was measured by incorporation of […] in a standard assay, and expressed as “stimulation index”.
Cells where the expression of MHC class II molecules had been induced by the transactivator gene CIITA (as CIITA cDNA) were tested for their ability to bind exogenously provided peptides and to present such peptides to T cell clones. These CIITA transfectants were compared with the same cells where MHC class II expression had been induced by interferon gamma. […] Peptide-specific T cell activation by these two types of MHC class II positive cells was measured by H3-thymidine incorporation, expressed as a stimulation index. […]

[2] = system: MHC class II positive cells; test: Peptide binding ability of MHC class II positive melanoma cells; format: cell-based, human; details: CIITA transfectants vs interferon activated
Procedure: Cells where the expression of MHC class II molecules had been induced by the transactivator gene CIITA (as CIITA cDNA) were tested for their ability to bind exogenously provided peptides and to present such peptides to T cell clones. These CIITA transfectants were compared with the same cells where MHC class II expression had been induced by interferon gamma. The two types of cells expressed MHC class II molecules at the surface at a similar level. […] Peptide-specific T cell activation by these two types of MHC class II positive cells was measured by H3-thymidine incorporation, expressed as a stimulation index. In this particular experiment, melanoma cells were used as antigen-presenting cells.
In agreement with these functional results, the peptide binding ability of these two types of MHC class II positive cells was drastically different, being low in the interferon activated cells and high in the CIITA transfectants. Thus, CIITA induces the expression of MHC class II molecules that are unusual in their highly efficient capacity to bind and to present peptides to T lymphocytes, leading to activation of these lymphocytes.

B1: interferon gamma (protein, UniProt P01579 24-161, looked up)
Interferon gamma: QDPYVKEAENLKKYFNAGHSDVADNGTLFLGILKNWKEESDRKIMQSQIVSFYFKLFKNFKDDQSIQKSVETIKEDMNVKFFNSNKKKRDDFEKLTNYSVTDLNVQRKAIHELIQVMAELSPAAKTGKRKRSQMLFRG
notes: lymphokine used to induce MHC class II expression in melanoma cells, comparator to CIITA transfection
[1]
  peptide-specific T cell activation (stimulation index): failed to induce significant T cell activation
[2]
  peptide binding ability: low
